Source: patent US20150064134A1

Columns and labels:
Experiment in all cases: cell-based or functional assay
Src(T341M)(h) (human) = Src(T341M)(h) (human) (UniProt P12931)
KDR(h) (human) = KDR(h) (human) (UniProt P35968)
CHK2(I157T)(h) (human) = CHK2(I157T)(h) (human) (UniProt O96017)
PKCε(h) (human) = PKCε(h) (human) (UniProt Q02156)
Met(D1246H)(h) (human) = Met(D1246H)(h) (human) (UniProt P08581)
PKG1β(h) (human) = biological target: T1, PKG1β(h) (human) (UniProt Q13976)
T1 sequence (looked up): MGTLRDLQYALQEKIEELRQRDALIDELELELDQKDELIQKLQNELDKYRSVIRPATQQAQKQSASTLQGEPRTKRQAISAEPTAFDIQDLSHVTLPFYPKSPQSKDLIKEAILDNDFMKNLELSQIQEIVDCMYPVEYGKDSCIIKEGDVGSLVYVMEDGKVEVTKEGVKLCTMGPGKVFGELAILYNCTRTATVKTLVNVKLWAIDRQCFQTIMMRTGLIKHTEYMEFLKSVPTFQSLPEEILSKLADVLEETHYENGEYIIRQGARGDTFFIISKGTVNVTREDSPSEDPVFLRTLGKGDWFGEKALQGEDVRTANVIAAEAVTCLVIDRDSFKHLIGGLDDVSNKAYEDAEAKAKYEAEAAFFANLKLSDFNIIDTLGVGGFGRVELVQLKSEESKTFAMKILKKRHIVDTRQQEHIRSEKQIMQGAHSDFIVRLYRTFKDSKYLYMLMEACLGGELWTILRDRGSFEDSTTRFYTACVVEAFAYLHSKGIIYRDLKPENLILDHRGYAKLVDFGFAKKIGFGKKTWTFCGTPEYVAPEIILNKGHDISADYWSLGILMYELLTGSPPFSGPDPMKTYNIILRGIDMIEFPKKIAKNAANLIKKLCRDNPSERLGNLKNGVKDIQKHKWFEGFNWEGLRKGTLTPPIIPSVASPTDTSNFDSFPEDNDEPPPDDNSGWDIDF

[1] = biological target: EGFR(T790M,L858R)(h) (human) (UniProt P00533)
Pyk2(h) (human) = Pyk2(h) (human) (UniProt Q14289)
PRK2(h) (human) = PRK2(h) (human) (UniProt Q16513)
Met(Y1248C)(h) (human) = Met(Y1248C)(h) (human) (UniProt P08581)
TSSK2(h) (human) = biological target: T2, TSSK2(h) (human) (UniProt Q96PF2)
T2 sequence (looked up): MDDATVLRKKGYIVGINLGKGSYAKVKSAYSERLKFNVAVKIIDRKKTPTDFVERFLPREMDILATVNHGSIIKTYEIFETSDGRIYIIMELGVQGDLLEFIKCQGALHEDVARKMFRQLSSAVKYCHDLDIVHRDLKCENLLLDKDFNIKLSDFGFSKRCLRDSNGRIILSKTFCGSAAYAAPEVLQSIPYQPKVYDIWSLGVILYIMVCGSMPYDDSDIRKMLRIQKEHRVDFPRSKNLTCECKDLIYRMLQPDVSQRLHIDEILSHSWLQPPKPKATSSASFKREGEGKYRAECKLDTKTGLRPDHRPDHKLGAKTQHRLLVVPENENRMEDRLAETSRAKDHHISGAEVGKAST

ROCK-I(h) (human) = ROCK-I(h) (human) (UniProt Q13464)
PRAK(h) (human) = PRAK(h) (human) (UniProt Q8IW41)
Chain of PRAK(h) (human) (Q8IW41 whole entry): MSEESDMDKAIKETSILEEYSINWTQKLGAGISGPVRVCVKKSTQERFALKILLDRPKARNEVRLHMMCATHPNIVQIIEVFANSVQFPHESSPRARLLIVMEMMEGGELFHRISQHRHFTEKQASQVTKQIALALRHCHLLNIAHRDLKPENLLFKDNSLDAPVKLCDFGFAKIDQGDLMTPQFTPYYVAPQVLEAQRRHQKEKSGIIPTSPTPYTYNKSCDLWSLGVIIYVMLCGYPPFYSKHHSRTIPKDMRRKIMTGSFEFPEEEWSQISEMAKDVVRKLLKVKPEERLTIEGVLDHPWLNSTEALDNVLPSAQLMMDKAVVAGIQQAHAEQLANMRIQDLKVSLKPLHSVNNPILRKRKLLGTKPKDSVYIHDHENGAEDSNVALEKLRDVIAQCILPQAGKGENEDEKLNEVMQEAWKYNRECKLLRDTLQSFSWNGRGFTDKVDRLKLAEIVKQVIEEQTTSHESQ

EphA1(h) (human) = biological target: T3, EphA1(h) (human) (UniProt P21709)
T3 sequence (looked up): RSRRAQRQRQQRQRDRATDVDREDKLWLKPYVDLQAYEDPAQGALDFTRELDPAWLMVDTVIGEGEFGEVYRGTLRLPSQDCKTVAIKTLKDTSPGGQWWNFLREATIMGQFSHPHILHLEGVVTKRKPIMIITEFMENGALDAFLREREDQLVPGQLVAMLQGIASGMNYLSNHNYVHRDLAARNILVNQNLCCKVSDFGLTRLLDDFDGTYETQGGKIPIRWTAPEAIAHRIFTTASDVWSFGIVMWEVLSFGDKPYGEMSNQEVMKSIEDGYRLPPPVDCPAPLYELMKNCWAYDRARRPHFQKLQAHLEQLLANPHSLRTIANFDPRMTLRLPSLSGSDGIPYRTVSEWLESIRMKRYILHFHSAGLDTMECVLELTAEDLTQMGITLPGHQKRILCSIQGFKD

SAPK2b(h) (human) = SAPK2b(h) (human) (UniProt Q15759)
Chain of SAPK2b(h) (human) (Q15759 whole entry): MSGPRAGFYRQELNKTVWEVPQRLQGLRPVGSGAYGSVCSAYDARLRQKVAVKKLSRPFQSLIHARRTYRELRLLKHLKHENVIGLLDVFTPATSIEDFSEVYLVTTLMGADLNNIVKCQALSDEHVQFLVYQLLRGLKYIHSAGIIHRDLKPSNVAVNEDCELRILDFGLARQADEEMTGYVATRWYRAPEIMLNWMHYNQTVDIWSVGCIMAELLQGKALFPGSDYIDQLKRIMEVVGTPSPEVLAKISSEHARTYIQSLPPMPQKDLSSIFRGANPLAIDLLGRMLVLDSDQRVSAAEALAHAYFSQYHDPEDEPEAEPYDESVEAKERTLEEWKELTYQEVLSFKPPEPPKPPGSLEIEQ

Hck(h) activated (human) = Hck(h) activated (human) (UniProt P08631)
PKG1α(h) (human) = PKG1α(h) (human) (UniProt Q13976)
PKCθ(h) (human) = PKCθ(h) (human) (UniProt Q04759)
[2] = biological target: IGF-1R(h), activated (human) (UniProt P08069)
Chain of IGF-1R(h), activated (human) (P08069 959-1367 limits assumed): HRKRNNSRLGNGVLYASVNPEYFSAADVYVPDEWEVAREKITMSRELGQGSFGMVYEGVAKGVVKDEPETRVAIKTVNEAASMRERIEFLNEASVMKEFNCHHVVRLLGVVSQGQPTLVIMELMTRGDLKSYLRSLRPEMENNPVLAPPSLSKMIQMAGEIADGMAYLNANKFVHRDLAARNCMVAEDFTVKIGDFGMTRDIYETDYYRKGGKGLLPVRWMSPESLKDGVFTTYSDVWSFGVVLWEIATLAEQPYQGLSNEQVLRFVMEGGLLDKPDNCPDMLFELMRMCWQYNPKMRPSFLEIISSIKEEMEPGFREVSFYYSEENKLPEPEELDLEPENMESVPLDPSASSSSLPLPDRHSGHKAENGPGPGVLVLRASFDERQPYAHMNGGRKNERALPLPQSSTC

Chain of CHK2(I157T)(h) (human) (O96017 5-543 I157T limits assumed): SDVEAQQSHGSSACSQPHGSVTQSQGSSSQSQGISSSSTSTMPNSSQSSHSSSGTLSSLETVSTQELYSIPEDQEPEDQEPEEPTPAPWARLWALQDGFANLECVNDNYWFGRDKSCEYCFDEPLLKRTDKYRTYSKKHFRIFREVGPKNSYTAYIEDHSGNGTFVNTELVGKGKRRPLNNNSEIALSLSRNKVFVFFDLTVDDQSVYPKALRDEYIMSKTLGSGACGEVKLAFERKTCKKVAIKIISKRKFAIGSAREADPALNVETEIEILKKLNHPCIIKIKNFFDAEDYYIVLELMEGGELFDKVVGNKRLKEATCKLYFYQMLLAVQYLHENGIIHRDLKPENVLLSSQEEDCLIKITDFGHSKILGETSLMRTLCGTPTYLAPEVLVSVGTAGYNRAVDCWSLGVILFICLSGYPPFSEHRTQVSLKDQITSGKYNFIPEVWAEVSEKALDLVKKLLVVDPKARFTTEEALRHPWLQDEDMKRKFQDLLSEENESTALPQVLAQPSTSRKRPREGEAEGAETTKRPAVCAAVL

Substance | % activity at 100 µM (Src(T341M)(h) (human)) | % activity at 100 µM (KDR(h) (human)) | % activity at 100 µM (CHK2(I157T)(h) (human)) | % activity at 100 µM (PKCε(h) (human)) | % activity at 100 µM (Met(D1246H)(h) (human)) | % activity at 100 µM (PKG1β(h) (human)) | % activity at 100 µM [1] | % activity at 100 µM (Pyk2(h) (human)) | % activity at 100 µM (PRK2(h) (human)) | % activity at 100 µM (Met(Y1248C)(h) (human)) | % activity at 100 µM (TSSK2(h) (human)) | % activity at 100 µM (ROCK-I(h) (human)) | % activity at 100 µM (PRAK(h) (human)) | % activity at 100 µM (EphA1(h) (human)) | % activity at 100 µM (SAPK2b(h) (human)) | % activity at 100 µM (Hck(h) activated (human)) | % activity at 100 µM (PKG1α(h) (human)) | % activity at 100 µM (PKCθ(h) (human)) | % activity at 100 µM [2]
MMI-0400 (peptide) | 76% | 94% | 41% | 59% | 68% | 53% | 78% | 34% | 27% | 36% | 94% | 73% | 118% | 61% | 82% | 81% | 58% | 76% | 77%
MMI-0300 (peptide) | 70% | 101% | 43% | 79% | 125% | 50% | 85% | 47% | 33% | 84% | 98% | 79% | 128% | 73% | 81% | 82% | 64% | 88% | 80%
MMI-0500 (peptide) | 59% | 15% | 3% | 23% | 150% | 24% | 53% | 46% | 7% | 73% | 92% | 17% | 95% | 40% | 42% | 67% | 25% | 62% | 45%
